Test results published in the supplement of paper PMC10567573.

B1: CDC34 (parent)
chain: GGYFKARLKFPIDYPYSPPAFRFL

Variants of: B1
Test: protein stability index of a GFP-peptide fusion (GPS, HEK-293T) (PSI 1-6); higher = more stable
Details: c terminus: a fixed tail appended
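Further: lentivirally expressed fusions sorted by FACS into six bins by GFP to DsRed ratio, PSI derived from sequencing read proportions per bin multiplied by bin number.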

Protein stability index of substitutions, site by site:
F10: W 3.49, D 3.29, E 2.66, S 3.88, R 2.94, Q 1.76, V 2.97, G 2.75, N 3.08, H 3.49, Y 2.87, C 2.89, I 2.44, M 2.53
G1: Y 2.68, R 2.45, E 1.58, P 2.61, T 3.19, A 2.86, H 2.91, W 2.88, V 2.45, C 2.8, M 3.53, F 2.55, I 3.18, K 2.88, S 3.14, Q 2.39, N 3.03, D 1.94
Y16: M 1.99, R 2.6, T 2.81, N 2.71, I 3.09, F 2.86, E 2.23, L 2.18, C 2.73, H 3.2, W 2.43, D 1.57, A 2.38, S 2.6, K 3.31, V 3.55, G 2.83
R7: C 2.9, A 1.8, H 3.7, L 2.38, W 3.18, Q 1.72, N 2.57, G 2.45, E 2.77, S 2.3, V 3.25, K 3.83, D 1.96, I 2.78, M 2.51
G2: H 3.54, M 2.92, C 2.22, I 3.05, P 3.31, S 2.18, W 2.23, V 3.03, F 2.03, E 1.94, Q 2.77, N 2.68, L 2.2, T 3.26, Y 3, D 2.29, K 1.9, A 3.13
P15: N 2.31, Y 2.56, A 3.19, C 3.05, V 2.21, E 2.84, S 3.76, H 3.92, Q 2.06, D 3.29, F 3.14, L 2.92, W 2.9, G 2.62, T 2.51, M 3.04, I 2.75
F4: L 3.57, D 2, N 2.72, A 2.97, C 3.82, W 1.73, S 3.07, R 2.76, Q 1.75, E 2.79, Y 2.38, K 3.11, P 1.54, M 2.51, T 1.94, H 1.96, V 3.17
K9: R 3.6, F 3.11, I 3.15, P 2.57, T 2.11, H 3.05, D 2.43, A 2.74, N 2.39, L 3.67, E 3.56, Y 3.41, G 2.29, S 3.19, W 2.66, M 1.82, Q 2.55
P11: Y 3.2, W 2.87, R 2.99, L 4.07, K 2.13, C 3.95, G 2.07, D 2.06, M 3.98, N 3.45, T 2.28, A 2.77, I 2.84, S 3.37, E 2.75
S17: Q 2.58, R 3.12, K 3.04, Y 2.44, F 2.93, H 3.25, N 3.85, D 2.77, G 2.85, I 3.04, V 4.24, E 3.71, M 2.9, W 2.82
F21: I 2.48, E 1.65, Q 3.14, S 1.54, M 2.15, A 2.57, R 2.82, K 2.16, D 2.34, C 2.55, G 3.19, N 1.88
A6: W 3.16, H 3.08, Y 3.56, P 2.13, K 3.08, V 2.15, E 2.33, T 2.76, S 2.47, I 1.94, L 2.36, M 3.74, Q 1.71, G 3.12, F 3.63, D 2.1, R 3.77, N 3.51
Y14: K 2.75, L 2.75, G 1.88, N 2.47, Q 1.82, I 2.16, M 2.8, S 4.54, C 2.57, V 2.7, R 2.09, E 2.06, D 3.03
P19: V 2.35, K 2.99, N 3.27, Q 2.55, Y 4.32, D 2.21, F 2.96, L 3.41, W 3.02, H 2.67, T 3.29, A 2.29, R 3.69, S 2.64, M 3.23, I 2.56, C 3.03, E 2.21
A20: V 2.96, I 3.02, C 1.71, D 2.18, F 3.14, G 2.29, K 3.03, M 3.57, S 2.54, R 3.03, H 3.05, E 3.68, Q 2.41, T 2.95, L 2.52, W 2.98
I12: N 2.22, F 3.1, V 1.8, E 2.83, M 1.39, L 2.49, W 2.12, Y 3.17, R 1.7, S 3.06, G 3.83, C 2.64, K 2.61
K5: V 3.61, R 2.71, D 2.63, C 2.85, I 2.76, P 1.98, T 2.69, E 2.79, N 2.89, S 3.33, F 3.5, H 2.61, A 2.24, Q 3.03, M 3.16
P18: N 2.51, C 3.4, G 2.4, Y 2.48, S 3.15, L 2.54, H 2.33, D 2.34, M 2.19, F 2.42, K 3.31, W 2.38, E 2.34, A 2.96, Q 3.79
Y3: N 2.44, P 3.03, R 3.15, T 2.39, G 1.63, V 2.61, C 3.72, M 2.46, H 3.02, K 3.54, E 1.29, A 2.68, W 2.33, L 2.32, I 2.63, F 1.77, S 1.54, Q 3.35
L8: Y 1.53, P 2.19, I 3.42, M 3.8, F 3.29, H 2.54, S 2.89, A 2.66, E 2.3, Q 2.35, K 2.48, G 3.75, W 2.65, C 2.65, R 1.25, D 2.24, V 2.53
D13: W 2.7, Q 2.73, E 1.97, G 4.23, N 2.64, A 3.56, I 3.04, M 1.68, S 2.34, F 3.1, C 2.51, L 3.38, T 2.82, K 3.03, V 3.06, R 3.03, H 3.16
